From patent publication EP4717714A1 (Shanghai Junshi Biosciences Co., Ltd., dated 2026)

T1: Recombinant human VEGFA (Sino Biological, catalog number 11066-HNAB) (human)
T1 chain: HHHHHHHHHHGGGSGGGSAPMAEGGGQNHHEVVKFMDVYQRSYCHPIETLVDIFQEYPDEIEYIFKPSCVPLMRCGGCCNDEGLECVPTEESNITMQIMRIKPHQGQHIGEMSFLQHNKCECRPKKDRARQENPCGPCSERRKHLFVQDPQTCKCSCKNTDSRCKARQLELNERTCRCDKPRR


Columns and labels:
[1] = biological target: T2, Recombinant human PD-1 (prepared by Suzhou Junmeng Biopharm Co., Ltd. according to the sequence of NCBI … (human, UniProt Q15116 25-170, limits assumed)); assay: indirect ELISA, human PD-1 coated at 0.3 µg/mL (FIG. 6a)
T2 construct: Soluble recombinant protein used in BLI and coated in ELISA; also called antigen PD-1

[2] = biological target: T2, Recombinant human PD-1 (prepared by …); assay: indirect ELISA, human PD-1 coated at 0.3 µg/mL (FIG. 6b)
[3] = biological target: T2, Recombinant human PD-1 (prepared by …); assay: BLI (Octet RED96e), antibody captured at 5 µg/mL, PD-1 at 210 and 70 nM
[4] = biological target: T2, Recombinant human PD-1 (prepared by …); assay: competitive ELISA, PD-1 coated, competitor Biotin-PD-L1 hFc at 4.0 µg/mL (FIG. 9a)
[5] = biological target: T2, Recombinant human PD-1 (prepared by …); assay: competitive ELISA, PD-1 coated, competitor Biotin-PD-L1 hFc at 4.0 µg/mL (FIG. 9b)
[6] = biological target: T1, Recombinant human VEGFA (Sino …); assay: cell-based or functional assay
[7] = biological target: Human PD-1 on the cell surface (Jurkat PD-1 effector cells, Promega); CD4 T cells in the mixed lymphocyte … (human, UniProt Q15116 25-288); assay: cell-based or functional assay
[8] = biological target: T1, Recombinant human VEGFA (Sino …); assay: BLI (Octet RED96e), told of the group
[9] = biological target: T1, Recombinant human VEGFA (Sino …); assay: indirect ELISA, human VEGFA coated at 0.5 µg/mL (FIG. 7a)
[10] = biological target: T1, Recombinant human VEGFA (Sino …); assay: indirect ELISA on coated human VEGFA, relative to Avastin control
[11] = biological target: T2, Recombinant human PD-1 (prepared by …); assay: indirect ELISA on coated human PD-1; stability sample, 5°C, 0 week
[12] = biological target: T2, Recombinant human PD-1 (prepared by …); assay: indirect ELISA on coated human PD-1; stability sample, 5°C, 4 week
[13] = biological target: T1, Recombinant human VEGFA (Sino …); assay: indirect ELISA on coated human VEGF; stability sample, 5°C, 0 week
[14] = biological target: T1, Recombinant human VEGFA (Sino …); assay: indirect ELISA on coated human VEGF; stability sample, 5°C, 2 week
[15] = biological target: T1, Recombinant human VEGFA (Sino …); assay: indirect ELISA on coated human VEGF; stability sample, 5°C, 4 week
[16] = biological target: T1, Recombinant human VEGFA (Sino …); assay: BLI (Octet RED96e), antibody captured at 5 µg/mL, VEGFA at 50 and 25 nM
[17] = biological target: T2, Recombinant human PD-1 (prepared by …); assay: indirect ELISA on coated human PD-1, relative to TAB001 (JS001) control
[18] = biological target: T2, Recombinant human PD-1 (prepared by …); assay: indirect ELISA on coated human PD-1; sample in human serum, 37°C, 0 week
[19] = biological target: T2, Recombinant human PD-1 (prepared by …); assay: indirect ELISA on coated human PD-1; sample in human serum, 37°C, 2 week
[20] = biological target: T2, Recombinant human PD-1 (prepared by …); assay: indirect ELISA on coated human PD-1; sample in human serum, 37°C, 4 week
[21] = biological target: T1, Recombinant human VEGFA (Sino …); assay: indirect ELISA on coated human VEGF; sample in human serum, 37°C, 0 week
[22] = biological target: T1, Recombinant human VEGFA (Sino …); assay: indirect ELISA on coated human VEGF; sample in human serum, 37°C, 2 week
[23] = biological target: T1, Recombinant human VEGFA (Sino …); assay: indirect ELISA on coated human VEGF; sample in human serum, 37°C, 4 week
[24] = biological target: T1, Recombinant human VEGFA (Sino …); assay: competitive ELISA against VEGFR2 on coated VEGFA, relative to Avastin control
[25] = biological target: T1, Recombinant human VEGFA (Sino …); assay: competitive ELISA, VEGFA coated, competitor biotinylated VEGFR2 at 0.3 µg/mL (FIG. 8a)
[26] = biological target: T2, Recombinant human PD-1 (prepared by …); assay: competitive ELISA against PD-L1 hFc on coated PD-1, relative to TAB001 (JS001) control
[27] = biological target: T1, Recombinant human VEGFA (Sino …); assay: indirect ELISA, human VEGFA coated at 0.5 µg/mL (FIG. 7b)
[28] = biological target: T1, Recombinant human VEGFA (Sino …); assay: competitive ELISA, VEGFA coated, competitor biotinylated VEGFR2 at 0.3 µg/mL (FIG. 8b)

EC50 [1] [nM]	Kd [3] [nM]	koff [3] [s⁻¹]	kon [3] [M⁻¹ s⁻¹]	IC50 [4] [nM]	IC50, VEGFA-induced proliferation of HUVEC cells [6] [nM]	EC50, PD-1/PD-L1 luciferase reporter gene system (Jurkat PD-1 / CHO PD-L1) [7] [nM]	Kd [8] [nM]	Relative binding activity (%) [10] [%]	Binding activity (%), PD-1 end [11] [%]	Binding activity (%), PD-1 end [12] [%]	Binding activity (%), VEGF end [13] [%]	Binding activity (%), VEGF end [14] [%]	Binding activity (%), VEGF end [15] [%]	Kd [16] [nM]	koff [16] [s⁻¹]	kon [16] [M⁻¹ s⁻¹]	Relative binding activity (%) [17] [%]	Binding activity (%), PD-1 end [18] [%]	Binding activity (%), PD-1 end [19] [%]	Binder	also measured
6.93	1.73	7.73e-05	44800	293	81.1	11.9	< 0.5	175	105	97	99	104	81	< 0.0186	< 1e-05	538000	52	121	95	Bispecific antibody molecule 23 (bispecific antibody, human IgG4 S228P, kappa, expressed in CHO-K1; also called Antibody 23; antibody 23 (IgG4)) light: DVVMTQSPLSLPVTLGQPASISCRSSQSIVHSNGNTYLEWYLQKPGQSPQLLIYKVSNRFSGVPDRFSGSGSGTDFTLKISRVEAEDVGVYYCFQGSHVPLTFGQGTKLEIKRTVAAPSVFIFPPSDEQLKSGTASVVCLLNNFYPREAKVQWKVDNALQSGNSQESVTEQDSKDSTYSLSSTLTLSKADYEKHKVYACEVTHQGLSSPVTKSFNRGEC heavy: not shown	EC50 [9]: 2.05 nM; Binding activity (%), PD-1 end [20]: 82%; Binding activity (%), VEGF end [21]: 98%; Binding activity (%), VEGF end [22]: 96%; Binding activity (%), VEGF end [23]: 79%; Relative binding activity (%) [24]: 97%; IC50 [25]: 679 nM; Relative binding activity (%) [26]: 46%
14.6	1.21	9.38e-05	77600	243	88	8.17	< 0.5	27	94	86	100	85	102	0.191	7.92e-05	414000	25	106	63	Bispecific antibody molecule 24 (bispecific antibody, human IgG4 S228P, kappa, Anti-PD-1 IgG4 (JS001) with the anti-VEGF VHH at the C-terminus of each heavy chain; also called Antibody 24; antibody 24 (IgG4)) light: DVVMTQSPLSLPVTLGQPASISCRSSQSIVHSNGNTYLEWYLQKPGQSPQLLIYKVSNRFSGVPDRFSGSGSGTDFTLKISRVEAEDVGVYYCFQGSHVPLTFGQGTKLEIKRTVAAPSVFIFPPSDEQLKSGTASVVCLLNNFYPREAKVQWKVDNALQSGNSQESVTEQDSKDSTYSLSSTLTLSKADYEKHKVYACEVTHQGLSSPVTKSFNRGEC heavy: not shown	EC50 [9]: 13.2 nM; Binding activity (%), PD-1 end [20]: 89%; Binding activity (%), VEGF end [21]: 104%; Binding activity (%), VEGF end [22]: 81%; Binding activity (%), VEGF end [23]: 95%; Relative binding activity (%) [24]: 61%; IC50 [25]: 1080 nM; Relative binding activity (%) [26]: 55%

The remaining lines, values behind:

Binder	EC50 [1] [nM]	Kd [3] [nM]	koff [3] [s⁻¹]	kon [3] [M⁻¹ s⁻¹]	IC50 [4] [nM]	IC50, VEGFA-induced proliferation of HUVEC cells [6] [nM]	EC50, PD-1/PD-L1 luciferase reporter gene system (Jurkat PD-1 / CHO PD-L1) [7] [nM]	Kd [8] [nM]	Relative binding activity (%) [10] [%]	Binding activity (%), PD-1 end [11] [%]	Binding activity (%), PD-1 end [12] [%]	Binding activity (%), VEGF end [13] [%]	Binding activity (%), VEGF end [14] [%]	Binding activity (%), VEGF end [15] [%]	Kd [16] [nM]	koff [16] [s⁻¹]	kon [16] [M⁻¹ s⁻¹]	Relative binding activity (%) [17] [%]	Binding activity (%), PD-1 end [18] [%]	Binding activity (%), PD-1 end [19] [%]	also measured
JS001 (recombinant humanized anti-PD-1 monoclonal antibody reference article, Toripalimab) (antibody, human IgG4 S228P, kappa, V domains shown, also called TAB001; anti-PD-1 monoclonal antibody JS001) VH: QGQLVQSGAEVKKPGASVKVSCKASGYTFTDYEMHWVRQAPIHGLEWIGVIESETGGTAYNQKFKGRVTITADKSTSTAYMELSSLRSEDTAVYYCAREGITTVATTYYWYFDVWGQGTTVTVSS VL: DVVMTQSPLSLPVTLGQPASISCRSSQSIVHSNGNTYLEWYLQKPGQSPQLLIYKVSNRFSGVPDRFSGSGSGTDFTLKISRVEAEDVGVYYCFQGSHVPLTFGQGTKLEIKR	3.6	0.584	3.93e-05	67300	135	–	–	–	–	–	–	–	–	–	–	–	–	–	–	–	EC50 [2]: 18.3 nM; IC50 [5]: 255 nM
Bispecific antibody molecule 27 (bispecific antibody, human IgG4 S228P, kappa, Anti-PD-1 IgG4 (JS001) with the anti-VEGF VHH inserted between CH1 and the hinge of each heavy chain; also called Antibody 27; antibody 27 (IgG4)) light: DVVMTQSPLSLPVTLGQPASISCRSSQSIVHSNGNTYLEWYLQKPGQSPQLLIYKVSNRFSGVPDRFSGSGSGTDFTLKISRVEAEDVGVYYCFQGSHVPLTFGQGTKLEIKRTVAAPSVFIFPPSDEQLKSGTASVVCLLNNFYPREAKVQWKVDNALQSGNSQESVTEQDSKDSTYSLSSTLTLSKADYEKHKVYACEVTHQGLSSPVTKSFNRGEC heavy: not shown	–	0.864	5.57e-05	64400	–	104	16.9	< 0.5	53	95	107	97	92	104	0.0521	4.24e-05	815000	77	93	86	EC50 [2]: 23.8 nM; EC50 [27]: 6.62 nM; Binding activity (%), PD-1 end [20]: 83%; Binding activity (%), VEGF end [21]: 101%; Binding activity (%), VEGF end [22]: 86%; Binding activity (%), VEGF end [23]: 78%; Relative binding activity (%) [24]: 85%; IC50 [5]: 297 nM; IC50 [28]: 3560 nM; Relative binding activity (%) [26]: 86%
